Blank lines part the entries; values can stand above or below the binder they belong to.
Legend:
Assay in all cases: cytokine release
[1] = target: T1, TPTE peptide on HLA-DRB1*13:01 (human)
T1 peptide: KHFIIYSIPRYVRDLKIQI

[2] = target: T2, TPTE peptide on HLA-DRB5*02:02 (human)
T2 peptide: KLIRRRVSENKRRYT

[3] = target: T3, TPTE peptide on HLA-DRB1*13:01 (human)
T3 peptide: PPRRILFIKHFIIYS

[4] = target: T4, TPTE peptide on HLA-DRB1*15:01 (human)
T4 peptide: RRQQYFSDLFNILDT

[5] = target: T5, TPTE peptide on HLA-DRB1*15:01 (human)
T5 peptide: DVVYIFFDIKLLRNI

[6] = target: T6, TPTE peptide on HLA-DRB1*15:01 (human)
T6 peptide: LFNILDTAIIVILLL

[7] = target: T7, TPTE peptide on HLA-DQA1*01:03 / HLA-DQB1*06:03 (human)
T7 peptide: VLDNITTDKILIDVF

[8] = target: T8, TPTE peptide on HLA-DQA1*01:02 / HLA-DQB1*06:02 (human)
T8 peptide: VLDNITTDKILIDVF

[9] = target: T9, TPTE peptide on HLA-DQA1*01:03 / HLA-DQB1*06:02 (human)
T9 peptide: VLDNITTDKILIDVF

[10] = target: T10, TPTE peptide on HLA-DRB1*15:01 (human)
T10 peptide: IKKIVHSIVSSFAFG

[11] = target: T11, TPTE peptide on HLA-DRB1*15:01 (human)
T11 peptide: DSKLYIPLEYRSISLAIAL

[12] = target: T12, TPTE peptide on HLA-DRB3*03:01 (human)
T12 peptide: IKLLRNIPRWTHLLR

[13] = target: T13, TPTE peptide on HLA-DRB1*13:01 (human)
T13 peptide: KLIRRRVSENKRRYT

[14] = target: T14, TPTE peptide on HLA-DRB1*13:01 (human)
T14 peptide: VLLRVFVERRQQYFS

[15] = target: T15, TPTE peptide on HLA-DRB1*13:01 (human)
T15 peptide: RFLDKKHRNHYRVYN

[16] = target: T16, TPTE peptide on HLA-DRB1*15:01 (human)
T16 peptide: YVAYFAQVKHLYNWNLPPR

[17] = target: T17, TPTE peptide on HLA-DRB1*15:01 (human)
T17 peptide: ILFIKHFIIYSIPRY

[18] = target: T18, TPTE peptide on HLA-DRB1*13:01 (human)
T18 peptide: RRVSENKRRYTRDGF

[19] = target: T19, TPTE peptide on HLA-DRB1*16:01 (human)
T19 peptide: NHYRVYNLCSERAYD

B1: TCRCD4-TPT#77 (TCR, V domains shown)
Valpha: AQKITQTQPGMFVQEKEAVTLDCTYDTSDPSYGLFWYKQPSSGEMIFLIYQGSYDQQNATEGRYSLNFQKARKSANLVISASQLGDSAMYFCAMREGLAKTSYDKVIFGPGTSLSVIP
Vbeta: GAVVSQHPSWVICKSGTSVKIECRSLDFQATTMFWYRQFPKQSLMLMATSNEGSKATYEQGVEKDKFLINHASLTLSTLTVTSAHPEDSSFYICSAPGTGHSAGELFFGEGSRLTVL
binding result [1]: recognises

B2: TCRCD4-TPT#33 (TCR, V domains shown)
Valpha: DQQVKQNSPSLSVQEGRISILNCDYTNSMFDYFLWYKKYPAEGPTFLISISSIKDKNEDGRFTVFLNKSAKHLSLHIVPSQPGDSAVYFCAARSYGGSQGNLIFGKGTKLSVKP
Vbeta: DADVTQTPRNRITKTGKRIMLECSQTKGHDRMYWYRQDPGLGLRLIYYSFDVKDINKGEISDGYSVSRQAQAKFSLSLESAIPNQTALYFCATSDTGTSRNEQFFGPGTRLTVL
binding result [2]: recognises

B3: TCRCD4-TPT#82 (TCR, V domains shown)
Valpha: AQTVTQSQPEMSVQEAETVTLSCTYDTSESDYYLFWYKQPPSRQMILVIRQEAYKQQNATENRFSVNFQKAAKSFSLKISDSQLGDAAMYFCAYRSAGLLLTFGGGTRLMVKP
Vbeta: DGGITQSPKYLFRKEGQNVTLSCEQNLNHDAMYWYRQDPGQGLRLIYYSQIVNDFQKGDIAEGYSVSREKKESFPLTVTSAQKNPTAFYLCASSKAPGQGNTQGWEQYFGPGTRLTVT
binding result [3]: recognises

B4: TCRCD4-TPT#79 (TCR, V domains shown)
Valpha: AQTVTQSQPEMSVQEAETVTLSCTYDTSESDYYLFWYKQPPSRQMILVIRQEAYKQQNATENRFSVNFQKAAKSFSLKISDSQLGDAAMYFCAYRSYNAGNMLTFGGGTRLMVKP
Vbeta: KAGVTQTPRYLIKTRGQQVTLSCSPISGHRSVSWYQQTPGQGLQFLFEYFSETQRNKGNFPGRFSGRQFSNSRSEMNVSTLELGDSALYLCASSDTSGGGGEQFFGPGTRLTVL
binding result [4]: recognises
binding result [5]: recognises
binding result [6]: recognises

B5: TCRCD4-TPT#76 (TCR, V domains shown)
Valpha: AQSVTQPDIHITVSEGASLELRCNYSYGATPYLFWYVQSPGQGLQLLLKYFSGDTLVQGIKGFEAEFKRSQSSFNLRKPSVHWSDAAEYFCAVGAFTRGGSEKLVFGKGMKLTVNP
Vbeta: DGGITQSPKYLFRKEGQNVTLSCEQNLNHDAMYWYRQDPGQGLRLIYYSQIVNDFQKGDIAEGYSVSREKKESFPLTVTSAQKNPTAFYLCATGSYVGYEQYFGPGTRLTVT
binding result [7]: recognises
binding result [8]: recognises
binding result [9]: recognises

B6: TCRCD4-TPT#57 (TCR, V domains shown)
Valpha: AQSVSQHNHHVILSEAASLELGCNYSYGGTVNLFWYVQYPGQHLQLLLKYFSGDPLVKGIKGFEAEFIKSKFSFNLRKPSVQWSDTAEYFCAVNARDNAGKSTFGDGTTLTVKP
Vbeta: KAGVTQTPRYLIKTRGQQVTLSCSPISGHRSVSWYQQTPGQGLQFLFEYFSETQRNKGNFPGRFSGRQFSNSRSEMNVSTLELGDSALYLCASRGEPSSYEQYFGPGTRLTVT
binding result [10]: recognises

B7: TCRCD4-TPT#52 (TCR, V domains shown)
Valpha: AQSVTQPDIHITVSEGASLELRCNYSYGATPYLFWYVQSPGQGLQLLLKYFSGDTLVQGIKGFEAEFKRSQSSFNLRKPSVHWSDAAEYFCAVGAQGAQKLVFGQGTRLTINP
Vbeta: NAGVTQTPKFQVLKTGQSMTLQCAQDMNHNSMYWYRQDPGMGLRLIYYSASEGTTDKGEVPNGYNVSRLNKREFSLRLESAAPSQTSVYFCASSEAGGSSFEQYFGPGTRLTVT
binding result [11]: recognises

B8: TCRCD4-TPT#27 (TCR, V domains shown)
Valpha: GENVEQHPSTLSVQEGDSAVIKCTYSDSASNYFPWYKQELGKRPQLIIDIRSNVGEKKDQRIAVTLNKTAKHFSLHITETQPEDSAVYFCAALYSGGGADGLTFGKGTHLIIQP
Vbeta: DGGITQSPKYLFRKEGQNVTLSCEQNLNHDAMYWYRQDPGQGLRLIYYSQIVNDFQKGDIAEGYSVSREKKESFPLTVTSAQKNPTAFYLCASSIGGGVNTEAFFGQGTRLTVV
binding result [12]: recognises

B9: TCRCD4-TPT#51 (TCR, V domains shown)
Valpha: GENVEQHPSTLSVQEGDSAVIKCTYSDSASNYFPWYKQELGKRPQLIIDIRSNVGEKKDQRIAVTLNKTAKHFSLHITETQPEDSAVYFCAALSGGSNYKLTFGKGTLLTVNP
Vbeta: EAGVTQFPSHSVIEKGQTVTLRCDPISGHDNLYWYRRVMGKEIKFLLHFVKESKQDESGMPNNRFLAERTGGTYSTLKVQPAELEDSGVYFCASSQQENTEAFFGQGTRLTVV
binding result [13]: recognises

B10: TCRCD4-TPT#59 (TCR, V domains shown)
Valpha: ELKVEQNPLFLSMQEGKNYTIYCNYSTTSDRLYWYRQDPGKSLESLFVLLSNGAVKQEGRLMASLDTKARLSTLHITAAVHDLSATYFCAVDNEFYFGTGTSLTVIP
Vbeta: DTGVSQDPRHKITKRGQNVTFRCDPISEHNRLYWYRQTLGQGPEFLTYFQNEAQLEKSRLLSDRFSAERPKGSFSTLEIQRTEQGDSAMYLCASSLLGAGNIQYFGAGTRLSVL
binding result [14]: recognises

Continued, values first:

binding result [15]: recognises
B11: TCRCD4-TPT#42 (TCR, V domains shown)
Valpha: GQQVMQIPQYQHVQEGEDFTTYCNSSTTLSNIQWYKQRPGGHPVFLIQLVKSGEVKKQKRLTFQFGEAKKNSSLHITATQTTDVGTYFCAGSTGGGNKLTFGTGTQLKVEL
Vbeta: GAGVSQSPRYKVAKRGQDVALRCDPISGHVSLFWYQQALGQGPEFLTYFQNEAQLDKSGLPSDRFFAERPEGSVSTLKIQRTQQEDSAVYLCASSDFYEQYFGPGTRLTVT

binding result [16]: recognises
B12: TCRCD4-TPT#49 (TCR, V domains shown)
Valpha: AQTVTQSQPEMSVQEAETVTLSCTYDTSENNYYLFWYKQPPSRQMILVIRQEAYKQQNATENRFSVNFQKAAKSFSLKISDSQLGDTAMYFCAFMKNTGNQFYFGTGTSLTVIP
Vbeta: DGGITQSPKYLFRKEGQNVTLSCEQNLNHDAMYWYRQDPGQGLRLIYYSQIVNDFQKGDIAEGYSVSREKKESFPLTVTSAQKNPTAFYLCASRRLDGLGIGELFFGEGSRLTVL

binding result [17]: recognises
B13: TCRCD4-TPT#45 (TCR, V domains shown)
Valpha: GESVGLHLPTLSVQEGDNSIINCAYSNSASDYFIWYKQESGKGPQFIIDIRSNMDKRQGQRVTVLLNKTVKHLSLQIAATQPGDSAVYFCAETRQGGKLIFGQGTELSVKP
Vbeta: GAVVSQHPSWVICKSGTSVKIECRSLDFQATTMFWYRQFPKQSLMLMATSNEGSKATYEQGVEKDKFLINHASLTLSTLTVTSAHPEDSSFYICSAPPGVTVRAYGYTFGSGTRLTVV

binding result [18]: recognises
B14: TCRCD4-TPT#78 (TCR, V domains shown)
Valpha: AQSVTQLDSQVPVFEEAPVELRCNYSSSVSVYLFWYVQYPNQGLQLLLKYLSGSTLVKGINGFEAEFNKSQTSFHLRKPSVHISDTAEYFCAVGPNNFNKFYFGSGTKLNVKP
Vbeta: EPEVTQTPSHQVTQMGQEVILRCVPISNHLYFYWYRQILGQKVEFLVSFYNNEISEKSEIFDDQFSVERPDGSNFTLKIRSTKLEDSAMYFCASSPVGGYNSPLHFGNGTRLTVT

binding result [19]: recognises
B15: TCRCD4-TPT#38 (TCR, V domains shown)
Valpha: ELKVEQNPLFLSMQEGKNYTIYCNYSTTSDRLYWYRQDPGKSLESLFVLLSNGAVKQEGRLMASLDTKARLSTLHITAAVHDLSATYFCAVGFRGSTLGRLYFGRGTQLTVWP
Vbeta: DAGVTQSPTHLIKTRGQHVTLRCSPISGHKSVSWYQQVLGQGPQFIFQYYEKEERGRGNFPDRFSARQFPNYSSELNVNALLLGDSALYLCASSWGQGNEKLFFGSGTQLSVL
